Biological target: mTurquoise-Tub1p (S. cerevisiae) (UniProt P09733)
Test: FRET or BRET; sensitized emission FRET in living S. cerevisiae cells by confocal microscopy; mTurquoise donor, YFP acceptor; FRET index corrected for donor and acceptor bleed through and for the level of the donor (relative FRET index)

Sequence of UniProt P09733 (P09733 whole entry): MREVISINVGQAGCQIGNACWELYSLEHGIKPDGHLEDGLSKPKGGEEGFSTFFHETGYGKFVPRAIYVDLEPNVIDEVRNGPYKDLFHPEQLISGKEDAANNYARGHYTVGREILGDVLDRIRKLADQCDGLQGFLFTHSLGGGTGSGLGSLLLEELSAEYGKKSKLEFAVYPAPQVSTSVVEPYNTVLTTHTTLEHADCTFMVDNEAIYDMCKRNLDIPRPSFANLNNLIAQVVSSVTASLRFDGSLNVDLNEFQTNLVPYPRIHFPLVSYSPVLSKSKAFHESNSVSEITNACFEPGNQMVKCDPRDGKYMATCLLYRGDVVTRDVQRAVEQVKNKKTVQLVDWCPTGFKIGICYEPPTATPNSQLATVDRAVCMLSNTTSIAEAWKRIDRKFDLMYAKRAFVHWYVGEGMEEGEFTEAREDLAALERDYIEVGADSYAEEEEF

Work on “YFP-VirE2 (from UniProt P0A3W8 1-533) (natural protein)” yielded a relative FRET index of 11.9.

Source: PMC3937733
